From the supplement of paper PMC5998384

Experiments:
HeLa Kyoto [1] = assay: thermal stability score vs G1/S (z-score of summed log2 fold changes over temperatures); higher = more thermally stable than in G1/S
HeLa Kyoto [2] = assay: melting temperature (median over replicates), in situ; higher = more thermally stable
HeLa Kyoto [3] = assay: solubility change mitosis vs G1/S (difference of NP-40 vs SDS log2 ratios) (log2 ratio difference); higher = more soluble in mitosis
HeLa Kyoto [4] = assay: solubility in G1/S (NP-40 vs SDS abundance) (log2 ratio); higher = more soluble; settings: cell cycle stage: G1/S
[5] = cell cycle stage: early G1 (4.5 h after nocodazole release)
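For melting temperature (median over replicates), in situ in this document: HeLa Kyoto cells synchronized by double thymidine or nocodazole block, proteins quantified by TMT10plex mass spectrometry, three independent biological replicates.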
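For solubility change mitosis vs G1/S (difference of NP-40 vs SDS log2 ratios) in this document: synchronized HeLa Kyoto cells (double thymidine block for G1/S, nocodazole release for mitosis), protein amounts in NP-40 versus SDS lysates quantified by mass spectrometry, three biological replicates.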
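For solubility in G1/S (NP-40 vs SDS abundance) in this document: HeLa Kyoto cells arrested at G1/S by double thymidine block, proteins quantified by TMT10plex mass spectrometry in mild NP-40 versus SDS extracts, three biological replicates.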
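For thermal stability score vs G1/S (z-score of summed log2 fold changes over temperatures) in this document: synchronized HeLa Kyoto cells, proteins quantified by TMT10plex mass spectrometry, three biological replicates, mitosis taken 0.5 h after nocodazole release, G1/S directly after double thymidine block.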

For “MEGQRWLPLEANPEVTNQFLKQLGLHPNWQFVDVYGMDPELLSMVPRPVCAVLLLFPITEKYEVFRTEEEEKIKSQGQDVTSSVYFMKQTISNACGTIGLIHAIANNKDKMHFESGSTLKKFLEESVSMSPEERARYLENYDAIRVTHETSAHEGQTEAPSIDEKVDLHFIALVHVDGHLYELDGRKPFPINHGETSDETLLEDAIEVCKKFMERDPDELRFNAIALSAA [UCHL3]”, which thermal stability score (HeLa Kyoto [1]; [5]) is on record?
The thermal stability score was 0.593.

What about the thermal stability score (HeLa Kyoto [1]; cell cycle stage: mitosis) of the same sequence?
The thermal stability score was -0.422.

And the melting temperature (HeLa Kyoto [2]; cell cycle stage: G1/S)?
Its melting temperature is 52.2 °C.

And the melting temperature (HeLa Kyoto [2]; cell cycle stage: mitosis)?
Its melting temperature is 52.2 °C.

What about the “solubility change mitosis (log2)” value (HeLa Kyoto [3]) of the same sequence?
The value was 0.183.

What about the “solubility in G1/S (log2)” value (HeLa Kyoto [4]) of the same sequence?
Its value is 0.205.

With “MEHVTEGSWESLPVPLHPQVLGALRELGFPYMTPVQSATIPLFMRNKDVAAEAVTGSGKTLAFVIPILEILLRREEKLKKSQVGAIIITPTRELAIQIDEVLSHFTKHFPEFSQILWIGGRNPGEDVERFKQQGGNIIVATPGRLEDMFRRKAEGLDLASCVRSLDVLVLDEADRLLDMGFEASINTILEFLPKQRRTGLFSATQTQEVENLVRAGLRNPVRVSVKEKGVAASSAQKTPSRLENYYMVCKADEKFNQLVHFLRNHKQEKHLVFFSTCACVEYYGKALEVLVKGVKIMCIHGKMKYKRNKIFMEFRKLQSGILVCTDVMARGIDIPEVNWVLQYDPPSNASAFVHRCGRTARIGHGGSALVFLLPMEESYINFLAINQKCPLQEMKPQRNTADLLPKLKSMALADRAVFEKGMKAFVSYVQAYAKHECNLIFRLKDLDFASLARGFALLRMPKMPELRGKQFPDFVPVDVNTDTIPFKDKIREKQRQKLLEQQRREKTENEGRRKFIKNKAWSKQKAKKEKKKKMNEKRKREEGSDIEDEDMEELLNDTRLLKKLKKGKITEEEFEKGLLTTGKRTIKTVDLGISDLEDDC [DDX55]” as the sequence, how does the thermal stability score (HeLa Kyoto [1]; [5]) read?
Its thermal stability score is 2.22.

And the thermal stability score (HeLa Kyoto [1]; cell cycle stage: mitosis)?
Its thermal stability score is 3.29.

What about the melting temperature (HeLa Kyoto [2]; cell cycle stage: G1/S) of the same sequence?
Its melting temperature is 49.2 °C.

What about the melting temperature (HeLa Kyoto [2]; cell cycle stage: mitosis) of the same sequence?
Its melting temperature is 50.7 °C.

What about the “solubility change mitosis (log2)” value (HeLa Kyoto [3]) of the same sequence?
Its value is 0.392.

What about the “solubility in G1/S (log2)” value (HeLa Kyoto [4]) of the same sequence?
Its value is -1.07.

How did the thermal stability score (HeLa Kyoto [1]; [5]) turn out when “MEIGTEISRKIRSAIKGKLQELGAYVDEELPDYIMVMVANKKSQDQMTEDLSLFLGNNTIRFTVWLHGVLDKLRSVTTEPSSLKSSDTNIFDSNVPSNKSNFSRGDERRHEAAVPPLAIPSARPEKRDSRVSTSSQESKTTNVRQTYDDGAATRLMSTVKPLREPAPSEDVIDIKPEPDDLIDEDLNFVQENPLSQKKPTVTLTYGSSRPSIEIYRPPASRNADSGVHLNRLQFQQQQNSIHAAKQLDMQSSWVYETGRLCEPEVLNSLEETYSPFFRNNSEKMSMEDENFRKRKLPVVSSVVKVKKFNHDGEEEEEDDDYGSRTGSISSSVSVPAKPERRPSLPPSKQANKNLILKAISEAQESVTKTTNYSTVPQKQTLPVAPRTRTSQEELLAEVVQGQSRTPRISPPIKEEETKGDSVEKNQGTQQRQLLSRLQIDPVMAETLQMSQDYYDMESMVHADTRSFILKKPKLSEEVVVAPNQESGMKTADSLRVLSGHLMQTRDLVQPDKPASPKFIVTLDGVPSPPGYMSDQEEDMCFEGMKPVNQTAASNKGLRGLLHPQQLHLLSRQLEDPNGSFSNAEMSELSVAQKPEKLLERCKYWPACKNGDECAYHHPISPCKAFPNCKFAEKCLFVHPNCKYDAKCTKPDCPFTHVSRRIPVLSPKPAVAPPAPPSSSQLCRYFPACKKMECPFYHPKHCRFNTQCTRPDCTFYHPTINVPPRHALKWIRPQTSE [ZC3H14]” was run?
Its thermal stability score is -0.823.

And the thermal stability score (HeLa Kyoto [1]; cell cycle stage: mitosis)?
Its thermal stability score is 0.321.

What about the melting temperature (HeLa Kyoto [2]; cell cycle stage: G1/S) of the same sequence?
The melting temperature was 49.7 °C.

What about the melting temperature (HeLa Kyoto [2]; cell cycle stage: mitosis) of the same sequence?
The melting temperature was 51.2 °C.

And the “solubility change mitosis (log2)” value (HeLa Kyoto [3])?
Its value is 0.656.

What about the “solubility in G1/S (log2)” value (HeLa Kyoto [4]) of the same sequence?
The value was -0.475.

Which results are given for “MEIPGSLCKKVKLSNNAQNWGMQRATNVTYQAHHVSRNKRGQVVGTRGGFRGCTVWLTGLSGAGKTTVSMALEEYLVCHGIPCYTLDGDNIRQGLNKNLGFSPEDREENVRRIAEVAKLFADAGLVCITSFISPYTQDRNNARQIHEGASLPFFEVFVDAPLHVCEQRDVKGLYKKARAGEIKGFTGIDSEYEKPEAPELVLKTDSCDVNDCVQQVVELLQERDIVPVDASYEVKELYVPENKLHLAKTDAETLPALKINKVDMQWVQVLAEGWATPLNGFMREREYLQCLHFDCLLDGGVINLSVPIVLTATHEDKERLDGCTAFALMYEGRRVAILRNPEFFEHRKEERCARQWGTTCKNHPYIKMVMEQGDWLIGGDLQVLDRVYWNDGLDQYRLTPTELKQKFKDMNADAVFAFQLRNPVHNGHALLMQDTHKQLLERGYRRPVLLLHPLGGWTKDDDVPLMWRMKQHAAVLEEGVLNPETTVVAIFPSPMMYAGPTEVQWHCRARMVAGANFYIVGRDPAGMPHPETGKDLYEPSHGAKVLTMAPGLITLEIVPFRVAAYNKKKKRMDYYDSEHHEDFEFISGTRMRKLAREGQKPPEGFMAPKAWTVLTEYYKSLEKA [PAPSS1]”?
thermal stability score (HeLa Kyoto [1]; [5]): 0.0766; thermal stability score (HeLa Kyoto [1]; cell cycle stage: mitosis): -0.551; melting temperature (HeLa Kyoto [2]; cell cycle stage: G1/S): 53.6 °C; melting temperature (HeLa Kyoto [2]; cell cycle stage: mitosis): 53.8 °C; solubility change mitosis (log2) (HeLa Kyoto [3]): -0.174; solubility in G1/S (log2) (HeLa Kyoto [4]): 0.104

Which results are given for “MEIPPTNYPASRAALVAQNYINYQQGTPHRVFEVQKVKQASMEDIPGRGHKYHLKFAVEEIIQKQVKVNCTAEVLYPSTGQETAPEVNFTFEGETGKNPDEEDNTFYQRLKSMKEPLEAQNIPDNFGNVSPEMTLVLHLAWVACGYIIWQNSTEDTWYKMVKIQTVKQVQRNDDFIELDYTILLHNIASQEIIPWQMQVLWHPQYGTKVKHNSRLPKEVQLE [LXN]”?
thermal stability score (HeLa Kyoto [1]; [5]): 0.745; thermal stability score (HeLa Kyoto [1]; cell cycle stage: mitosis): 0.0486; melting temperature (HeLa Kyoto [2]; cell cycle stage: G1/S): 51.9 °C; melting temperature (HeLa Kyoto [2]; cell cycle stage: mitosis): 52.3 °C; solubility change mitosis (log2) (HeLa Kyoto [3]): -0.098; solubility in G1/S (log2) (HeLa Kyoto [4]): 0.224

For “MEKIPVSAFLLLVALSYTLARDTTVKPGAKKDTKDSRPKLPQTLSRGWGDQLIWTQTYEEALYKSKTSNKPLMIIHHLDECPHSQALKKVFAENKEIQKLAEQFVLLNLVYETTDKHLSPDGQYVPRIMFVDPSLTVRADITGRYSNRLYAYEPADTALLLDNMKKALKLLKTEL [AGR2]”, which thermal stability score (HeLa Kyoto [1]; [5]) is on record?
The thermal stability score was 0.575.

And the thermal stability score (HeLa Kyoto [1]; cell cycle stage: mitosis)?
The thermal stability score was -1.24.

And the melting temperature (HeLa Kyoto [2]; cell cycle stage: G1/S)?
The melting temperature was 53.8 °C.

And the melting temperature (HeLa Kyoto [2]; cell cycle stage: mitosis)?
Its melting temperature is 53.4 °C.

What about the “solubility change mitosis (log2)” value (HeLa Kyoto [3]) of the same sequence?
The value was 0.3.

And the “solubility in G1/S (log2)” value (HeLa Kyoto [4])?
Its value is 0.49.
